target: T1, TAK1 (Mus musculus, UniProt Q62073); test: Yeast 2-hybrid method, β-galactosidase activity: binding ability of TAB1 deletion mutants to TAK1; assay type: cell-based; conditions: yeast L40 co-transformed with TAK1 2-hybrid expression plasmid; GAL4 activation domain fusion; measured three times
T1 construct: A gene encoding a full-length TAK1 was prepared by digesting yeast 2-hybrid expression plasmid pBTMHu11F; expressed in transfected cells; host or cells: Saccharomyces cerevisiae strain L40
T1 sequence (Q62073 1-579): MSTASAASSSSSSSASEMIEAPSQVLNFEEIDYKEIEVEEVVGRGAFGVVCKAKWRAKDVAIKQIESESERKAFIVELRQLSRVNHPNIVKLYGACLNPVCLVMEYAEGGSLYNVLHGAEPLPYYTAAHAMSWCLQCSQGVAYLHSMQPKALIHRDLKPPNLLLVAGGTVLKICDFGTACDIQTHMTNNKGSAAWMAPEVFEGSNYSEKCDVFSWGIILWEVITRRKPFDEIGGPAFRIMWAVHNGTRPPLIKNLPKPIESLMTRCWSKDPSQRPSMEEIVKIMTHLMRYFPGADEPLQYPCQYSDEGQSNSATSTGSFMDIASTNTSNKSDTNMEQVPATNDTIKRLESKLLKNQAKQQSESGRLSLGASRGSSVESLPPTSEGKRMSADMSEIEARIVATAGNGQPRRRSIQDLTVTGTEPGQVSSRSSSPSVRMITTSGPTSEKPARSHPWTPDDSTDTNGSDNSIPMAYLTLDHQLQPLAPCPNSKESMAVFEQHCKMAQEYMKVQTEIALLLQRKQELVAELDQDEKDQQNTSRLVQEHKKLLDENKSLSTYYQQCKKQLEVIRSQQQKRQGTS
Source text: In order to evaluate each TAB1 deletion mutant constructed in Example 10, a yeast 2-hybrid expression vector of each TAB1 deletion mutant and a yeast 2-hybrid expression vector pBTMHu11F (Shibuya H. et al., Science (1996) 272, 1179-1182) that expresses TAK1 were co-transformed into a yeast strain L40 (Shibuya H. et al., Science (1996) 272, 1179-1182). […] each of a TAB1 deletion mutant expression vector (pGAD-TAB1C45 to pGAD-TAB1C45 in Working Example 10-1 and pGAD-TAB1C45D14 to pGAD-TAB1C45D25 in Working Example 10-2) or pGAD-TAB1 (Shibuya H. et al., Science (1996) 272, 1179-1182) as a control and pBTMHu11F were introduced into the L40 strain according to the instructions (MATCHMAKER™ Two-Hybrid System, manufactured by CLONTECH), and were incubated on a selection agar medium SD-ULW (glucose 20 g, agar (manufactured by DIFCO) 20 g, Yeast Nitrogen Base w/o amino acids (manufactured by DIFCO) 6.7 g, adenine 100 mg, isoleucine 30 mg, valine 150 mg, arginine 20 mg, lysine 30 mg, methionine 20 mg, phenylalanine 50 mg, threonine 200 mg, tyrosine 30 mg, histidine 100 mg-per liter of medium) at 30° C. for 3 days to obtain each transformant.
In order to evaluate the binding ability to TAK1 of each TAB1 deletion mutant constructed in Example 10, activity was determined by the yeast 2-hybrid method. Since a reporter gene lacZ having the LexA binding sequence upstream thereof has been integrated on the chromosome of the yeast strain L40, the binding ability to TAK1 of each TAB1 deletion mutant can be evaluated in relative terms by measuring the activity of β-galactosidase that is a reporter gene product.
(§1) The β-galactosidase activity of each transformant obtained in Example 11 was determined according to the instructions (MATCHMAKER™ Two-Hybrid System, manufactured by CLONTECH), and the activity was calculated using Miller Unit (Miller, J. H. (1972) Experiments in Molecular Genetics, Cold Spring Harbor Laboratory, Cold Spring Harbor, N.Y.).
In FIG. 11, the β-galactosidase activity of each TAB1 deletion mutant and the yeast L40 transformed by the yeast 2-hybrid expression plasmid of TAK1 was expressed in terms of Miller Units. Measurement was carried out three times and the mean+/−SD is shown. The value indicates a ratio based on the β-galactosidase activity of the yeast L40 transformed by TAB1C68 and the yeast 2-hybrid expression plasmid of TAK1.
as §1, with “Units” for “Unit”
In FIG. 12, the β-galactosidase activity of the yeast L40 transformed by each TAB1 deletion mutant and the yeast 2-hybrid expression plasmid of TAK1 was expressed in terms of Miller Units. Measurement was carried out three times and the mean+/−SD is shown. The value indicates a ratio based on the β-galactosidase activity of the yeast L40 transformed by the TAB1C68 and yeast 2-hybrid expression plasmid of TAK1.
First, binding between the 68, 45, 40, 35, 30 and 25 amino acid regions of the carboxy terminal of TAB1 and TAK1 was evaluated by the yeast 2-hybrid method mentioned above.

Row | Molecule | specific activity: β-galactosidase activity as ratio to TAB1C68
1 | TAB1C20: polypeptide comprising 20 amino acids of the carboxy terminal of TAB1 (AEFYRLWSVDHGEQSVVTAP; left off: large carriers) | 0.03
2 | TAB1C21: polypeptide comprising 21 amino acids of the carboxy terminal of TAB1 (FAEFYRLWSVDHGEQSVVTAP; left off: large carriers) | 0.03
3 | TAB1C22: polypeptide comprising 22 amino acids of the carboxy terminal of TAB1 (DFAEFYRLWSVDHGEQSVVTAP; left off: large carriers) | 0.03
4 | TAB1C23: polypeptide comprising 23 amino acids of the carboxy terminal of TAB1 (VDFAEFYRLWSVDHGEQSVVTAP; left off: large carriers) | 0.05
5 | TAB1C24: polypeptide comprising 24 amino acids of the carboxy terminal of TAB1 (YVDFAEFYRLWSVDHGEQSVVTAP; left off: large carriers) | 0.35
6 | TAB1C45 Δ19: lacks 19 amino acids from the carboxy terminal of the 45 amino acid carboxy terminal portion of TAB1 (GLFRSRPAHSLPPGEDGRVEPYVDFA; UniProt Q15750 460-485, looked up, fragment) | 0.13
7 | TAB1C45 Δ20: lacks 20 amino acids from the carboxy terminal of the 45 amino acid carboxy terminal portion of TAB1 (GLFRSRPAHSLPPGEDGRVEPYVDF; UniProt Q15750 460-484, looked up, fragment) | 0.11
8 | TAB1C45 Δ21: lacks 21 amino acids from the carboxy terminal of the 45 amino acid carboxy terminal portion of TAB1 (GLFRSRPAHSLPPGEDGRVEPYVD; UniProt Q15750 460-483, looked up, fragment) | 0.01
9 | TAB1C45 Δ22: lacks 22 amino acids from the carboxy terminal of the 45 amino acid carboxy terminal portion of TAB1 (GLFRSRPAHSLPPGEDGRVEPYV; UniProt Q15750 460-482, looked up, fragment) | 0.02
10 | TAB1C45 Δ23: lacks 23 amino acids from the carboxy terminal of the 45 amino acid carboxy terminal portion of TAB1 (GLFRSRPAHSLPPGEDGRVEPY; UniProt Q15750 460-481, looked up, fragment) | 0.00
11 | TAB1C45 Δ24: lacks 24 amino acids from the carboxy terminal of the 45 amino acid carboxy terminal portion of TAB1 (GLFRSRPAHSLPPGEDGRVEP; UniProt Q15750 460-480, looked up, fragment) | 0.02
12 | TAB1C45 Δ25: lacks 25 amino acids from the carboxy terminal of the 45 amino acid carboxy terminal portion of TAB1 (GLFRSRPAHSLPPGEDGRVE; UniProt Q15750 460-479, looked up, fragment) | 0.01

tested on: TAK1; test: Growth of yeast SY1984-P on plate without histidine: ability of TAB1 deletion mutants to activate TAK1; assay type: cell-based; conditions: growth of yeast SY1984-P with pNV11-HU11 on SC-His plate, 30° C.
Source text: The region of TAB1 required to induce the kinase activity after binding to TAK1 was identified using TAB1 deletion mutants.
Expression vectors for the 40, 35 and 30 amino acid regions (FIG. 14) in the carboxy terminal of TAB1 were constructed as described below. Thus, genes encoding 40, 35 and 30 amino acid regions respectively in the carboxy terminal of TAB1 were amplified by the PCR method as described above, digested with restriction enzymes XhoI and EcoRI, and inserted to the GAL4 transcription activated domain expression vector pGAD10 to construct pGAD-TAB1C40, pGAD-TAB1C35 and pGAD-TAB1C30, respectively. Furthermore, expression vectors for the TAB1 deletion mutants (FIG. 14) comprising 68, 45 and 25 amino acid regions in the carboxy terminal of TAB1 used were pGAD-TAB1, pGAD-TAB1C45 and pGAD-TAB1C25.
Subsequently, it was investigated whether each TAB1 deletion mutant can induce the kinase activity of TAK1 using the method described in Japanese Unexamined Patent Publication (Kokai) 9(1997)-163990. Thus, the above TAB1 deletion mutant expression vector and TAK1 expression vector pNV11-HU11 (Yamaguchi, K. et al., Science (1995) 270, 2008-2011) were introduced into Saccharomyces cereviceae SY1984-P strain (his3Δ, stellΔ, FUS1p::HIS3, STE7^P368) to obtain deletion mutants. […] These transformants were plated onto a SC-His (glucose 20 g, agar (manufactured by DIFCO) 20 g, Yeast Nitrogen Base w/o amino acids (manufactured by DIFCO) 6.7 g, adenine 100 mg, isoleucine 30 mg, valine 150 mg, arginine 20 mg, lysine 30 mg, methionine 20 mg, phenylalanine 50 mg, threonine 200 mg, tyrosine 30 mg per liter of medium) plate containing no histidine, incubated at 30° C., and the growth of yeast transformed with each expression vector was confirmed in order to evaluate the ability of each TAB1deletion mutant to activate TAK1.

Row | Molecule | ability to activate TAK1
13 | TAB1C25: polypeptide comprising 25 amino acids of the carboxy terminal of TAB1 (PYVDFAEFYRLWSVDHGEQSVVTAP; left off: large carriers) | not
14 | TAB1C30: 30 amino acid region in the carboxy terminal of TAB1 (DGRVEPYVDFAEFYRLWSVDHGEQSVVTAP; left off: large carriers) | observed
15 | TAB1C35: 35 amino acid region in the carboxy terminal of TAB1 (LPPGEDGRVEPYVDFAEFYRLWSVDHGEQSVVTAP; left off: large carriers) | observed
16 | TAB1C40: 40 amino acid region in the carboxy terminal of TAB1 (RPAHSLPPGEDGRVEPYVDFAEFYRLWSVDHGEQSVVTAP; left off: large carriers) | observed
17 | TAB1C45: polypeptide comprising 45 amino acids of the carboxy terminal of TAB1 (GLFRSRPAHSLPPGEDGRVEPYVDFAEFYRLWSVDHGEQSVVTAP; left off: large carriers) | observed
18 | TAB1C68: 68 amino acid residues of the carboxy terminal of the TAB1 polypeptide (pGAD-TAB1) (protein, GAL4 activation domain fusion) QSPTLTLQSTNTHTQSSSSSSDGGLFRSRPAHSLPPGEDGRVEPYVDFAEFYRLWSVDHGEQSVVTAP | observed

— US6551840B2, “Method of screening TGF-β-inhibiting substances” (Chugai Seiyaku Kabushiki Kaisha, priority 1997, dated 2003)
